Residue numbers refer to the chain shown, from its start. In names and notes the source's numbering stands.
B1: Oregon Green 514-labelled human sulfiredoxin Tyr128Ala (enzyme)
chain: not shown
modifications: Oregon Green 514 label (position not given)
notes: sulfiredoxin (Srx), human; The unlabelled variant was used in the HPLC activity assay; also called Srx Y128A; source: site-directed mutant (QuikChange), purified
B2: human peroxiredoxin 2, wild type (enzyme, UniProt P32119 1-198, looked up)
chain: MASGNARIGKPAPDFKATAVVDGAFKEVKLSDYKGKYVVLFFYPLDFTFVCPTEIIAFSNRAEDFRKLGCEVLGVSVDSQFTHLAWINTPRKEGGLGPLNIPLLADVTRRLSEDYGVLKTDEGIAYRGLFIIDGKGVLRQITVNDLPVGRSVDEALRLVQAFQYTDEHGEVCPAGWKPGSDTIKPNVDDSKEYFSKHN
notes: peroxiredoxin 2 (Prx2), human; Stored in the disulfide-bonded form; run on SEC-MALS reduced (10 mM DTT) or oxidized (1.2 equivalents of H2O2); In the repair assay the protein was hyperoxidized (CP-SO2H); also called Prx2; WT Prx2; copies: 10
B3: human peroxiredoxin 2 Thr82Glu, engineered dimer (enzyme, UniProt P32119 1-198, looked up)
chain: B2 chain with T82E
notes: peroxiredoxin 2 (Prx2), human; Vector pET19pp; His tag removed with HRV-3C protease; Section 2.6 prints the mutation as T83E; In the repair assay the protein was about 80% hyperoxidized; also called Prx2-T82E; Prx2-E; source: E. coli BL21Gold (DE3), purified (HisPur Cobalt, Q-Sepharose, Superdex 200); not shown: His tag, N-terminal, cleaved
B4: Oregon Green 514-labelled human sulfiredoxin (Srx), wild type (enzyme)
chain: not shown
modifications: Oregon Green 514 label (position not given)
notes: sulfiredoxin (Srx), human; also called WT Srx; Oregon Green labeled Srx
B5: human peroxiredoxin 1 variant C71S, C83V, C173S (decamer) (enzyme)
chain: MSSGNAKIGHPAPNFKATAVMPDGQFKDISLSDYKGKYVVFFFYPLDFTFVCPTEIIAFSDRAEEFKKLNSQVIGASVDSHFVHLAWVNTPKKQGGLGPMNIPLVSDPKRTIAQDYGVLKADEGISFRGLFIIDDKGILRQITVNDLPVGRSVDETLRLVQAFQFTDKHGEVSPAGWKPGSDTIKPDVQKSKEYFSKQK
modifications: Cys52 disulfide-bonded to Cys99 of Srx (made through a Cys52-S-TNB mixed disulfide)
notes: peroxiredoxin 1 (Prx1), human; Only the peroxidatic Cys52 is left; C83V was put in to stabilise the decamer; also called Prx1 variant; Prx1 C83V mutant; source: purified; treated with DTNB, then titrated with Srx; copies: 10
B6: human peroxiredoxin 3 Ser139Glu/Ala142Glu, engineered dimer (enzyme, UniProt P30048 62-256, looked up)
chain: APAVTQHAPYFKGTAVVNGEFKDLSLDDFKGKYLVLFFYPLDFTFVCPTEIVAFSDKANEFHDVNCEVVAVSVDSHFEHLEWINTPRKNGGLGHMNIALLSDLTKQISRDYGVLLEGSGLALRGLFIIDPNGVIKHLSVNDLPVGRSVEETLRLVKAFQYVETHGEVCPANWTPDSPTIKPSPAASKEYFQKVNQ
notes: peroxiredoxin 3 (Prx3), mitochondrial, human; Vector pET15b; His tag removed with thrombin; In the repair assay the protein was about 20% hyperoxidized; also called Prx3-S139E/A142E; Prx3-EE; source: E. coli BL21Gold (DE3), purified (HisPur Cobalt, Q-Sepharose, Superdex 200); not shown: His tag, N-terminal, cleaved
B7: human peroxiredoxin 3, wild type (enzyme, UniProt P30048 62-256, looked up)
chain: B6 chain with E78S, E81A
notes: peroxiredoxin 3 (Prx3), mitochondrial, human; In the repair assay the protein was hyperoxidized (CP-SO2H); also called Prx3; WT Prx3; copies: 12

What was measured:
[1] = target: T1, hyperoxidized wild-type human peroxiredoxin 1, decameric (Prx1-SO2H) (human, UniProt Q06830 1-199, cysteine sulfinic acid at the peroxidatic cysteine (CP-SO2H; CP is Cys52)); assay: fluorescence polarisation; Oregon Green 514-labelled Srx variants, decameric Prx1-SO2H added; MgCl2 omitted to prevent turnover; curves fit to a single site, saturable model; conditions: both partners purified
T1 construct: peroxiredoxin 1 (Prx1), human; also called hyperoxidized Prx1; copies: 10
T1 sequence (looked up): B5 chain with S71C, V83C, S173C

[2] = target: the molecule itself; assay: SEC-MALS; 2 mg/mL (86-93 µM) Prx in 50 mM HEPES pH 7.5, 100 mM NaCl; TSK Gel 4000 SW; reduced samples with 10 mM DTT, oxidized samples with 1.2 equivalents of H2O2
[3] = target: the molecule itself; assay: crystal structure; disulfide-bonded Srx-Prx1 complex (Cys99 of Srx to Cys52 of Prx1); hanging drop, 100 mM citric acid pH 4.5, 26% PEG 400, 100 mM CsCl; 3.0 Å, space group C2

Row | Binder | stoichiometry N [2] | also measured
1 | B1 | – | Kd [1]: 12.5 ± 1.2 µM
2 | B2 | 10 | –
3 | B3 | 2 | –
4 | B4 | – | Kd [1]: 7 ± 1.5 µM
5 | B5 | – | stoichiometry N [3]: 10
6 | B6 | 2 | –
7 | B7 | 12 | –
